Measurements reported in patent US10906989 (dated 2021).

T1: staphylocoagulase SC(1-246), unlabeled (UniProt P17855 27-272)
T1 chain: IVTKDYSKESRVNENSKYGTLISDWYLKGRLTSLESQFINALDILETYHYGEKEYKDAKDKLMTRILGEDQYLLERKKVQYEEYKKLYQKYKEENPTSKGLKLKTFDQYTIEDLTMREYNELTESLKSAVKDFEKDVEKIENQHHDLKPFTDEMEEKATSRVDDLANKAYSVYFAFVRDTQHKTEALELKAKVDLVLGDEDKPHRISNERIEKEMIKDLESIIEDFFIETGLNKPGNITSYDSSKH

B1: GMA-2105 murine monoclonal antibody (antibody, V domains shown)
VH: EVKLEESGGGLVQPGGSMKLSCAASGFTFSDAWMDWVRQSPEKGLEWVAEIRTKANNHATYYAESVKGRFTISRDDSKSSVYLQMNSLRAEDTGIYYCTNVYYGNNDVKDYWGQGTSVTVSP
VL: DIVMTQSQKFMSTSVGDRVSVTCKASQNVDIYVAWYQQKPGQSPKALIYSASYRFSGVPDRFTGSGSGTDFTLSISNVQSEDLAEYFCQQYNNYPYTFGGGTKLEIKR
B2: Chimeric GMA-2105 (antibody, V domains shown)
VH: B1 VH
VL: B1 VL

Molecular target: T1, staphylocoagulase SC(1-246), unlabeled
Assay: fluorescence competitive titration; competitor

| Binder | Kd [nM] |
| --- | --- |
| B1 | 0.71 |
| B2 | 0.75 |
